Legend:
HSCs = experiment: Effect of scAb incubation on HSC viability (attachment, protein assay); format: cell-based, human; conditions: 3 hours incubation, 5 μg scAb or indicated chemical, FIG. 12
Description: Effect of scAb incubation on HSC viability. HSCs seeded into 24 well plates were incubated in 0.3 mls culture medium containing 5 μg scAb or the indicated-chemical. Cells were incubated for 3 hours prior to removal of medium and washing with 1×PBS. Attachment (as a measure of viability) was determined by a direct protein assay in the culture wells.

human HSCs [1] = experiment: HSC viability with gliotoxin and C1-3-gliotoxin conjugate; format: cell-based; conditions: 1.5 uM gliotoxin; 10 ug C1-3-gliotoxin conjugate in 500 ul medium; FIG. 14
Description: HSC viability. Human HSCs in 24 well plate culture were treated with 500 ul medium containing either DMSO vehicle; 1.5 uM gliotoxin (750 pmoles); 20 ul C1-3 scAb at 1 mg/ml (20 ug C1-3 scAb); or 20 ul C1-3-gliotoxin conjugate at 0.5 mg/ml (10 ug C1-3 scAb-250 pmoles C1-3 scAb*/1000 pmoles gliotoxidn). *0.5 mg C1-3 protein/ml stock=12.5 uM=12.5 nmoles/ml=12.5 pmol/ul

human HSC = experiment: FACS analysis of human HSC cultures; format: cell-based; conditions: co-staining under native conditions prior to fixing, 1 hour 37° C., FIG. 10
Description: FACS analysis of human HSC incubated without (UPPER PANEL) or with (LOWER PANEL) primary antibodies—i.e. FITC-C13 scAb (FITC) and a mouse monoclonal antibody to α-smooth muscle actin (αsma-APC). Anti-α-smooth muscle actin antibody was detected using a biotin conjugated secondary antibody followed by fluorophore-streptavidin conjugate incubation as outlined in the Methods section. Figures represent the percentage of cells in each quadrant. Data are typical of 3 separate cell preparations.
FITC-C1-3 scAb was added to culture medium (200 μg/10 mls) and incubated with a confluent (10 cm diameter dish) culture of HSCs for 1 hour at 37° C. The medium was then removed and the cells were washed in PBS. The cells were then detached from the culture substratum non-enzymatically using cell dissociation solution (Sigma, Poole, UK), pelleted by centrifugation and fixed/permeabilised using BD cytofix/cytoperm (BD Biosciences, Oxford, UK). After 15 minutes, the cells were washed in 0.5 mls 1× wash/perm buffer (BD Biosciences, Oxford, UK) and incubated with a mouse anti-α-smooth muscle actin monoclonal antibody (Sigma, Poole, UK) diluted in 1× wash/perm buffer. […] The cells were analysed by flow cytometry (LSR I, BD, Oxford, UK). […]

human HSCs [2] = experiment: Uptake of scAb and conjugates by human HSCs in culture (Western blot of medium); format: cell-based; conditions: 5 μg scAb in 0.3 mls medium, FIG. 11
Description: Uptake of C1-3 scAb and C1-3-conjugates by human HSCs in culture. HSCs seeded into 24 well plates were incubated in 0.3 mls culture medium containing 5 μg scAb. Samples of medium were taken at the indicated times and subjected to Western blotting to detect scAb using HRP-conjugated anti-human Cκ light chain antibody (UPPER PANEL) and serum albumin (LOWER PANEL) as a loading control. Results typical of 4 separate experiments.

[3] = test system: human hepatic stellate cells; experiment: Fluorescence microscopy of FITC-labelled scAb with cells; format: cell-based
Description: (§1) FITC-C1-3 scAb was tested for its ability to interact with hepatic stellate cells in culture by fluorescence microscopy. Human hepatic stellate cells were seeded (1×10^3 cells per chamber) on chamber slides (Nunclon, Naperville) in complete medium prior to experimentation. Cells were washed twice in phosphate buffered saline (PBS) and incubated in 500 μl Hepes/HBSS buffer (0.14M NaCl, 5.4 mM KCl, 0.34 mM Na2HPO4, 0.94 mm KH2PO4, 5.6 mM glucose, 1 mM CaCl2, 6 mM HEPES, 4 mM NaHCO3 pH7.4) containing 10 μg scAb or FITC-C1-3 scAb for 1 h at room temperature in the dark. The cells were then washed in PBS and mounted with Vectashield mounting medium (Vector laboratories, Burlingame, Calif.) containing 4′,6′ diamindino-2 phenylindole (DAPI) to stain cell nuclei and coverslips applied. Florescence microscopy was carried out using a Zeiss Axeola II microscope with a Photometrics Sensis camera, and data captured using the Smart Capture programme. Human hepatocytes (UK Human Tissue Bank) were originally cultured in a collagen-coated 24 well plate (1×10^5/well) and maintained in William's medium E supplemented with 80 units/ml penicillin and 80 μg/ml streptomycin.

human hepatocytes = experiment: as above; format: cell-based
Description: as §1

[4] = test system: hepatic stellate cell and hepatocytes co-cultured; format: cell-based, human
Description: For co-culture experiments, hepatic stellate cells were seeded into hepatocytes cultures (1×10^3 cells per well) and cultured for 24 h prior to experimentation. The C1-3 or FITC-C1-3 scAb was incubated as outlined for pure hepatic stellate cell cultures except that after 1 hour incubation and washing, the cells were harvested by trypsinisation and centrifugation at 1000 rpm for 5 min. The cell pellet was then resuspended in 0.4% formaldehyde/10^6 cells, applied onto glass slides by cytocentrifugation and mounted with Vectashield containing DAPI. Slides were viewed by fluorescence microscopy as before.

COS-7 cells = experiment: Fluorescence binding to cells; format: cell-based
HepG2 cells = experiment: Fluorescence binding to cells; format: cell-based
human HSCs [5] = experiment: Fluorescence microscopy without fixation: effect of peptides and monensin on FITC-C1-3 scAb binding; format: cell-based; conditions: 10 μg scAb, 1 hour, no fixation, FIG. 13
Description: Effect of synaptophysin peptides and monensin on FITC-C1-3 scAb binding to human HSCs. Human HSCs seeded into 24 well plates were washed and incubated in 500 μl Hepes/HBSS per well for 1 hour containing either: 10 μg C1-3 scAb; 10 μg FITC-C1-3 scAb; 10 μg FITC-C1-3 scAb and 0.25 nmoles of the target peptide; 10 μg FITC-C1-3 scAb and 2.5 nmoles of the target peptide; 10 μg FITC-C1-3 scAb and 25 nmoles of the target peptide; 10 μg FITC-C1-3 scAb and 25 nmoles of the target peptide P1; 10 μg FITC-C1-3 scAb and 2.5 μM monensin; 10 μg FITC-C1-3 scAb and 15 μM monensin; 10 μg FITC-3A8 scAb (scAb raised to microcystin and not expected to bind to HSCs). Cells incubated with monensin were preincubated for 10 minutes. Just prior to addition of scAb, the medium was changed and cells were re-dosed with monensin. […] Bar=μm. Monen=monensin; P1=the […] peptide (SEQ ID NO 27); P2=the target peptide.
HSCs seeded into 24 well plates were washed with Hepes/HBSS and then incubated at 37° C. in 500 μl/well Hepes/HBSS containing 10 μg scAb with or without additional compounds. After 1 hour, the cells were washed 3 times with 500 μl Hepes/HBSS. Cells were analysed using an Axiovert 100 microscope (Zeiss, Germany) using filter set #9 (BP 450-490 nm; LP 515 nm).

Row | Molecule | toxicity to HSCs (attachment as measure of viability) (HSCs) | killing of human HSCs (human HSCs [1]) | binding to α-smooth muscle actin positive human HSCs (FACS) (human HSC) | association with HSCs: change of culture medium concentration of scAb (human HSCs [2]) | green fluorescence associated with hepatic stellate cells ([3]; 10 μg scAb, 1 h, room temperature) | location of fluorescence in hepatic stellate cells ([3]; mounting medium with DAPI) | green fluorescence associated with human hepatocytes (human hepatocytes) | green fluorescence in hepatic stellate cell/hepatocyte co-cultures [4] | fluorescence binding to COS-7 cells (COS-7 cells) | fluorescence binding to HepG2 cells (HepG2 cells) | association of FITC-labelled scAb with HSCs (human HSCs [5])
1 | CN1C(=O)[C@]23CC4=CC=C[C@H](O)[C@H]4N2C(=O)[C@@]1(CO)SS3 [gliotoxin] | kill HSCs | killed human HSCs | – | – | – | – | – | – | – | – | –
2 | FITC-C1-3 scAb: C1-3 scAb labelled with FITC (conjugate) scFv: MAEVQLLESGGGLVQPGGSLRLSCAASGFTFSSYAMSWVRQAPGKGLEWVSTIAASGPSTGYADSVKGRFTISRDNSKNTLYLQMNSLRAEDTAVYYCAKTTAKFDYWGQGTLVTVSSGGGGSGGGGSGGGGSTDIQMTQSPSSLSASVGDRVTITCRASQSISSYLNWYQQKPGKAPKLLIYSASRLQSGVPSRFNGSGSGTDFTLTISSLQPEDFATYYCQQLQRKPTTFGQGTKVEIKRGAAAPSVFIFPPSDEQLKSGTASVVCLLNNFYPREAKVQWKVDNALQSGNSQESVTEQDSKDSTYSLSSTLTLSKADYEKHKVYACEVTHQGLSSPVTKSFNRGESHHHHHH | – | – | all the cells bound C1-3 scAb | reduction in culture medium concentrations | fluorescence was associated with hepatic stellate cells | fluorescence was located around the nuclear and cell membranes | no associated green fluorescence | Fluorescence was observed on stellate cells whilst hepatocytes consistently failed to display detectable levels of associated green fluorescence | not detected | not detected | associated with HSCs
